PMC8555152

Target: microtubule associated protein 1 light chain 3 (LC3), endogenous (human (endogenous in HEK293T)) (UniProt Q9GZQ8)
Assay: co-IP

For “HIV-1 NL4-3 Gag (p55), expressed from the provirus (natural protein)”, the reduction of the binding in SQSTM1-depleted cells relative to the control siRNA was 50%.
